The labels stand for the following.
B1: MtbCsm3 (natural protein)
chain: MTTSYAKIEITGTLTVLTGLQIGAGDGFSAIGAVDKPVVRDPLSRLPMIPGTSLKGKVRTLLSRQYGADTETFYRKPNEDHAHIRRLFGDTEEYMTGRLVFRDTKLTNKDDLEARGAKTLTEVKFENAINRVTAKANLRQMERVIPGSEFAFSLVYEVSFGTPGEEQKASLPSSDEIIEDFNAIARGLKLLELDYLGGSGTRGYGQVKFSNLKARAAVGALDGSLLEKLNHELAAV
B2: MtbCsm6 (natural protein)
chain: MILFSPIGTADPITALGDGPMLHIVRHYRPIVVVLFLSAEIAAFENADRRYSAAITRLAPETDVRIVTYTNPSVHRFDLFVPVFRNHLVELSAEFPDRTILLNTSSGTPAMQAALVAINVFGIPRTTAVQVSTPARALSKPGDRESPDAYDLELMWDANDDNQPGAPNRCFEATSAALGALLERANLKQLIVSYDYSAAVTIAADSRLPDQVSNLIRGAMHRSRLEHLVAPKFFKDTAFTYDPANKVAEYISALALLAKREQWAEFARSATPAITIVLRAAVAKHLPEDRYLDDMGRVDRRKLEREPEIRCALKHPPKSPNAEWYLYTKDWLALLRQFAPDRVGALEVLGRFESRVRNTAAHEIVSISEDRITKDGGLLPEQLLKILARETGADLTLYDRLNDEIIRQIDMAPLG
B3: MtbCsm2 (natural protein)
chain: MSVIQDDYVKQAEVIRGLPKKKNGFELTTTQLRVLLSLTAQLFDEAQQSANPTLPRQLKEKVQYLRVRFVYQSGREDAVKTFVRNAKLLEALEGIGDSRDGLLRFCRYMEALAAYKKYLDPKDK

The values that follow come from paper PMC10715591, “EspB and HtpG interact with the type III-A CRISPR/Cas system of Mycobacterium tuberculosis” (Frontiers in Molecular Biosciences, 2023).

What is called Kd is the equilibrium constant for the complex coming apart. Low values mean higher affinity, high ones lower affinity. By koff is commonly meant the first-order rate constant of dissociation. The low end stands for slow dissociation, the high end for fast dissociation. Usually kon stands for the second-order rate constant of association. Low values mean slow association, high ones fast association.

The assay deals with T1, ESX-1 secretion-associated protein EspB (Mycobacterium tuberculosis H37Rv, UniProt P9WJD9 1-460).
T1 construct: also called Esx-1 secreted protein B
T1 sequence (P9WJD9 whole entry): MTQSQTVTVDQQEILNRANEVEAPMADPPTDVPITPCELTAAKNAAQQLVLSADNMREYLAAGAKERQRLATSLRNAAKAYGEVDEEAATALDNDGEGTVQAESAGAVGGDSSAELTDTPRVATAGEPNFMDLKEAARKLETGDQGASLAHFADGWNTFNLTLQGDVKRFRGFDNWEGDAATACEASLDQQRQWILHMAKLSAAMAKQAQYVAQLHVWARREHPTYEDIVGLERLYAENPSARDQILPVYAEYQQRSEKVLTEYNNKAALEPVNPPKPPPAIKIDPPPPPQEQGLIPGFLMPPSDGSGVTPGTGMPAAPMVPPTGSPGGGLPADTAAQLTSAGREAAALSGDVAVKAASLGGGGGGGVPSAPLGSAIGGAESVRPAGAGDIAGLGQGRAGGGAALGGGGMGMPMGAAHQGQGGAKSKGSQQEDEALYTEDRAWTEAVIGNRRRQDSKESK
Kind of assay: SPR; Biacore 8K, 25°C; EspB covalently immobilised on a CM5 chip; analytes injected at 25-3,200 nM, 30 uL/min for 2 min; global fit to a 1:1 mass transport model. The following applies: both partners purified. A general note: In SPR one partner is held on a chip, and binding of the other changes the refractive index at the surface.
For the molecule B1, the equilibrium dissociation constant (Kd) is 1.9 nM, the dissociation rate constant (koff) worked out at 0.000462 s⁻¹ and the association rate constant (kon) was determined as 243000 M⁻¹ s⁻¹.
In turn, B2 displayed a Kd of 0.0316 nM, a dissociation rate constant (koff) of 5.83e-07 s⁻¹ and an association rate constant (kon) of 18400 M⁻¹ s⁻¹.
Regarding B3, binding was characterised by a dissociation constant (Kd) of 0.125 nM, the koff was 8.3e-07 s⁻¹ and the on-rate constant (kon) was found to be 6660 M⁻¹ s⁻¹.
